According to patent EP3653708A1, “ISOMALTULOSE PRODUCTION” (Evonik Operations GmbH, priority 2018, dated 2020):

Experiments:
[1] = molecular target: Serratia plymuthica sucrose isomerase SmuA variant SmuA(Q181P/D398G/F453Y) (Serratia plymuthica, UniProt D0VX20, D383G/F438Y/Q166P/V450E); test: Michaelis-Menten kinetics of the conversion of sucrose into isomaltulose (HPLC, initial velocities); assay type: biochemical; conditions: 25 mM calcium acetate pH 5.5, 20 °C, 74.7 nM enzyme, 50-400 mM sucrose
Protocol: (§1) The enzyme activity assay was carried out in 25 mM calcium acetate pH 5.5 in the presence of 1.16 M sucrose (Sigma-Aldrich, St. Louis, MO) for 16 h at 20 °C.
(§2) The reaction mixture was composed as follows:
(§3) The enzymatic product composition was determined on an Agilent 1200 HPLC instrument (Agilent Technologies, Santa Clara, United States of America) equipped with a Smart line refractive index detector 2300 (Knauer, Berlin, Germany). The sample solution was applied on an XBridge amide column (particle size: 5.0 µm, inner diameter: 4.6, length: 250 mm); (Waters, Milford, MA) at a flow rate of 2 mL/min using a running buffer of 57.8 % acetonitrile, 26.1 % acetone and 16.1 % H2O.
The Michaelis constant (KM), the turnover number (kcat) and the catalytic efficiency (kcat/KM) were determined for isomaltulose. […] To determine the initial velocities at these sucrose concentrations, the isomaltulose yield was analysed via HPLC and plotted against the respective sucrose concentration. […]
Figure 1 illustrates analysis of the enzyme kinetics and the product spectrum of mutant SmuA. […] The initial velocities for the production of isomaltulose were measured by HPLC at sucrose concentrations of 50 mM, 100 mM, 150 mM, 200 mM, 300 mM, and 400 mM. […]

[2] = tested on: OC[C@H]1O[C@@](CO)(O[C@H]2O[C@H](CO)[C@@H](O)[C@H](O)[C@H]2O)[C@@H](O)[C@@H]1O; test: as above; assay type: biochemical, Serratia plymuthica; conditions: 25 mM calcium acetate pH 5.5, 20 °C, 74.7 nM enzyme, 50-400 mM sucrose
Protocol: as §1, §2, §3
The Michaelis constant (KM), the turnover number (kcat) and the catalytic efficiency (kcat/KM) were determined for isomaltulose. To this end, the enzymatic reaction was carried out as described above at sucrose concentrations of 50 mM, 100 mM, 150 mM, 200 mM, 300 mM and 400 mM and stopped after 10 min, 20 min, 30 min and 40 min by heating the sample at 95 °C for 10 min. To determine the initial velocities at these sucrose concentrations, the isomaltulose yield was analysed via HPLC and plotted against the […]. The slope of the subsequent linear regression corresponded to the initial velocity.
Figure 1 illustrates analysis of the enzyme kinetics and the product spectrum of mutant SmuA. […] The initial velocities for the production of isomaltulose were measured by HPLC at sucrose concentrations of 50 mM, 100 mM, 150 mM, 200 mM, 300 mM, and 400 mM. The enzyme activity assay was carried out in 25 mM calcium acetate buffer pH 5.5 at 20 °C and 74.7 nM of the enzyme. […] Chromatographic conditions: XBridge amide column (particle size: 5.0 µm, inner diameter: 4.6, length: 250 mm); flow rate: 2 mL/min; injection volume: 20 µL; running buffer: 57.8 % acetonitrile, 26.1 % acetone, 16.1 % H2O. Detection via Smartline refractive index detector 2300. The enzyme activity assay was carried out in 25 mM calcium acetate buffer pH 5.5 in the presence of 1.16 M sucrose and 74.4 nM of the recombinant wild type enzyme for 16 h at 20 °C. Table 1: Composition of the isomerization products from sucrose by engineered SmuA variants.

[3] = other: SmuA(Y219L/T369F/D398G/F453Y)

Question: With `OC[C@H]1O[C@@](CO)(O[C@H]2O[C@H](CO)[C@@H](O)[C@H](O)[C@H]2O)[C@@H](O)[C@@H]1O` [sucrose] as the molecule, how does the kcat [1] read?
Answer: The kcat was 122.88 s⁻¹.

Question: Which results are given for “Serratia plymuthica sucrose isomerase SmuA variant SmuA(Y219L) (Serratia plymuthica; V450E/Y204L)”?
Answer: Km ([2]; other: SmuA(Y219L)): 86.64 mM; kcat ([2]; other: SmuA(Y219L)): 665.77 s⁻¹; kcat/Km ([2]; other: SmuA(Y219L)): 7680 M⁻¹ s⁻¹

Question: For “Serratia plymuthica sucrose isomerase SmuA variant SmuA(Y219L/D398G) (Serratia plymuthica; D383G/V450E/Y204L)”, which Km ([2]; other: SmuA(Y219L/D398G)) is on record?
Answer: Its Km is 60.16 mM.

Question: What about the kcat ([2]; other: SmuA(Y219L/D398G)) of the same molecule?
Answer: Its kcat is 708.22 s⁻¹.

Question: And the kcat/Km ([2]; other: SmuA(Y219L/D398G))?
Answer: Its kcat/Km is 11770 M⁻¹ s⁻¹.

Question: Which Km [2, 3] does the source give for “Serratia plymuthica sucrose isomerase SmuA variant SmuA(Y219L/T369F/D398G/F453Y) (Serratia plymuthica; D383G/F438Y/T354F/V450E/Y204L)” here?
Answer: The Km was 58.16 mM.

Question: What about the kcat [2, 3] of the same molecule?
Answer: The kcat was 201.07 s⁻¹.

Question: What about the kcat/Km [2, 3] of the same molecule?
Answer: Its kcat/Km is 3460 M⁻¹ s⁻¹.

Question: For “Serratia plymuthica sucrose isomerase SmuA, used as wildtype SmuA (UniProt D0VX20 with point mutation V465E, SEQ ID NO:3) (Serratia plymuthica; V450E)”, which Km ([2]; other: SmuA) is on record?
Answer: The Km was 55.25 mM.

Question: And the kcat ([2]; other: SmuA)?
Answer: Its kcat is 965.15 s⁻¹.

Question: What about the kcat/Km ([2]; other: SmuA) of the same molecule?
Answer: Its kcat/Km is 17470 M⁻¹ s⁻¹.
